Measurements taken from patent publication US20250034261A1 (TAIZHOU ENZE MEDICAL CENTER GROUP, published 2025).

Assays:
[1] = target: T1, antigenic peptide located at positions 209-226 in the heavy chain α3 domain of the HLA-G molecules … (human); assay: indirect ELISA, peptide coated at 2 ug/ml, antibody in 2-fold dilutions from 200-fold; logistic fit, 150000×A/antibody concentration
T1 construct: Synthetic peptide, coated on the ELISA plate at 2 ug/ml; also called immunogen
T1 peptide: KTHVTHHPVFDYEATLRC

[2] = target: T1, antigenic peptide located at positions …; assay: indirect ELISA, peptide coated at 2 ug/ml; antibody stock 2.8 mg/mL
HLA-G7 standard protein = target: T2, HLA-G7 standard protein (human, UniProt P17693-7 25-116); assay: immunoblot of HLA-G isoform standard proteins
T2 construct: Standard protein used in immunoblotting

HLA-G4 standard protein = target: T3, HLA-G4 standard protein (human, UniProt P17693-4 25-246); assay: immunoblot of HLA-G isoform standard proteins
T3 construct: Standard protein used in immunoblotting

HLA-G3 standard protein = target: T4, HLA-G3 standard protein (human, UniProt P17693-3 25-154); assay: immunoblot of HLA-G isoform standard proteins
T4 construct: Standard protein used in immunoblotting

B1: monoclonal antibody (YWHG-3) against HLA-G1, -G2, -G5 and HLA-G6 isoforms (antibody, IgG1, V domains shown)
VH: LVQLQQSGGGLVKPGGSLKLSCAASGFTFSDYNMYWVRQTPEKRLEWVATISDGGRSTFYLDSVKGRFTISRDNAKNNLYLQINNLKSEDTAIYYCVRDDYWGQGTTLTVSS
VL: DIMMTQTPLSLPVSLGDQASISCRSSQSLVHSTGNTFLNWYLQKPGQSPKLLIYKVSNRFSGVSDRFSGSGSGTDFTLKIRRVEAEDLGVYFCSQSTHVPWTFGGGTKLEIK
notes: Used biotin-labelled in the HLA-G5 ELISA and FITC-labelled in flow cytometry; also called hybridoma CCTCC NO: 202121
Which Ka [1] does the source give for B1 here?
The Ka was 1.1e+10 M⁻¹.

What about the “antibody dilution factor corresponding to 1/2 OD value” [2] of the same binder?
Its value is 205000 fold dilution.

Does B1 bind (HLA-G7 standard protein)?
Result: no binding (tested: 1.0 ug/ml)

Does B1 bind (HLA-G4 standard protein)?
Result: no binding (tested: 1.0 ug/ml)

Does B1 bind (HLA-G3 standard protein)?
Result: no binding (tested: 1.0 ug/ml)
